# From publication PMC5694952 (The EMBO Journal, 2016)
# T1: chloroplast ribosomal protein uL13c (spinach (Spinacia oleracea) (endogenous …, UniProt P12629 48-250))
# T1 sequence (looked up): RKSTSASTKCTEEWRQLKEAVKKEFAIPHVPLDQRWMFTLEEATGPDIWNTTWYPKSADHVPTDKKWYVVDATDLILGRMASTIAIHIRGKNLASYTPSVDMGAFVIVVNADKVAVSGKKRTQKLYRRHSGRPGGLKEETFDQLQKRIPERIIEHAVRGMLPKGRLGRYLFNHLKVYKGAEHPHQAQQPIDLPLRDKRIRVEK
# T2: chloroplast ribosomal protein bL20c (spinach (Spinacia oleracea) (endogenous …, UniProt P28803 1-128))
# T2 sequence (looked up): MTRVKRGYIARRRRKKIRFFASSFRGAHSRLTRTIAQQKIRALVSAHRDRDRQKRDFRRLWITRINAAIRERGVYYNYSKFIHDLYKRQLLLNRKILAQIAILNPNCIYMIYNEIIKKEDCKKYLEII
# T3: chloroplast ribosomal protein uS13c (spinach (Spinacia oleracea) (endogenous …, UniProt P82163 48-172))
# T3 sequence (looked up): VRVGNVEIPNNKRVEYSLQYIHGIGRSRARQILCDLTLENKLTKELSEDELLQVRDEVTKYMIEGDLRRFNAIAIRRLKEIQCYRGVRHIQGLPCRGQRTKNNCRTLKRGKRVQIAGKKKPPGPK
# T4: chloroplast ribosomal protein bS1c (spinach (Spinacia oleracea) (endogenous …, UniProt P29344 42-411))
# T4 sequence (looked up): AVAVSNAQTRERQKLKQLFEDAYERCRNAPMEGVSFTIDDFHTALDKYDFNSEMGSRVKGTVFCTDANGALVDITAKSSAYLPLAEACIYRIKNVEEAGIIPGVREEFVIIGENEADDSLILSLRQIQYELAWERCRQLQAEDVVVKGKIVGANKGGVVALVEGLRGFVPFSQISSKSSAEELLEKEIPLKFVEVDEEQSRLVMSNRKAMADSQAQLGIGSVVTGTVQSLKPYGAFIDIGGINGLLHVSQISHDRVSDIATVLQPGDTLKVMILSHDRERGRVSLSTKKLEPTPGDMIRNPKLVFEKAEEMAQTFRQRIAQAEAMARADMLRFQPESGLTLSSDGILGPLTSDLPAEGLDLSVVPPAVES
# T5: chloroplast ribosomal protein uL23c (spinach (Spinacia oleracea) (endogenous …, UniProt Q9LWB5 77-198))
# T5 sequence (looked up): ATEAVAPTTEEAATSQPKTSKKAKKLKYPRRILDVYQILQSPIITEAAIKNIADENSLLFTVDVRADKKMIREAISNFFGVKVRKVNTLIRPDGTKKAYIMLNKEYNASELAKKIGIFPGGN
# B1: chloroplast ribosomal protein bL21c (natural protein, UniProt P24613 56-256, looked up)
# chain: AKRRRFQEIPEELKAEFEEFQRPPNQKPQLSDVLPDDFQAPEPGTPEYNDIINQFLPKKGPPPPREEIFAVVVIGSRQYIVIPGRWIYTQRLKGATVNDKIVLNKVLLVGTKASTYIGTPIVTNAAVHAVVEEQLLDDKVIVFKYKKKKNYRRNIGHRQPITRIKITGITGYEDYPASTLEAEVEAKEEAEAEAEAEAVPV
# B2: chloroplast ribosomal protein uS5c (natural protein, UniProt Q9ST69 56-308, looked up)
# chain: CIKKDDIDITFFEQDNPDEEITFDPPEKPEGYIPPRAVDEPPFESEEEIALAYEELYGAAYSGESLLGNDVYAMDSKIKKATGFGSKSKKEKIRDGFEENVVQVRRVTKVVKGGKHMRFRAIVVVGDKKGQVGVGVGKAKEVVSAVQKAAVDARRNIITVPMTKYLTFPHRNEADYGAARVMLRPAAPGTGVIAGGAVRTVLEMAGVENALGKQLGSNNALNNARATIVAVQTMRQFSDVARDRGIPMEELWK
# How the values were obtained:
# Assay in all cases: cryo-EM structure
# [1] = biological target: T1, chloroplast ribosomal protein uL13c
# [2] = biological target: T2, chloroplast ribosomal protein bL20c
# [3] = biological target: B1
# [4] = biological target: B2
# [5] = biological target: T3, chloroplast ribosomal protein uS13c
# [6] = biological target: T4, chloroplast ribosomal protein bS1c
# [7] = biological target: T5, chloroplast ribosomal protein uL23c
binder,measurement,setting,value
"chloroplast ribosomal protein uL22c (natural protein, UniProt P09594 1-199, looked up) MGFFKKKEKKAEFDVFRLYGLHHPEPGKCDEITTRGYSISMSVDKARRVIDQIRGRSYAETLMILELMPYRACYPIFKLIYSAAANASHNKQFNKANLIISKAEVNKGITLKKVKPRARGRSYMIKRPTCHITIVLRDITHFDSYDKFLESLTPKKLIALLGLMSTGRRRELLCGRFRENHKIKSFLYKIALFKRYEVM",binding result,[1],binds
B1,binding result,[1],binds
"plastid-specific ribosomal protein cL38 (natural protein, UniProt P82411 48-116, looked up) SSRPQKKGTAHHMKTRPKKTARWDIKRGPAVYPPLPPLPAEWTIVSSAVDEADSSSSTTSSSAEIAQSA",binding result,[2],binds
same,binding result,[3],binds
"chloroplast ribosomal protein uS3c (natural protein, UniProt P09595 1-218, looked up) MGQKINPLGFRLGTTQSHYSLWFSQPKNYAEGLQEDQKIRDCIKNYVQKNTKTSSGVEGIARIEIQKRIDLIQVIIHMGFPKLLIENRPQGVEDLKINVQKELNCVNRKLNIAITRIAKPYGDPNILAEFIAGQLKSRVSFRKAMKKAIELTEQADTKGIQIQIAGRIDGKEIARIEWIREGRVPLQTIRAKIDYCAYTVRTIYGVLGIKIWIFMGEE",binding result,[4],binds
"GRGDRKTAKGKRFNHSFGNARPKNKNKGRGPPKAPIFPKGDPSQKED (natural protein, UniProt P47910 55-101, looked up) [plastid-specific ribosomal protein bTHXc]",binding result,[5],binds
"chloroplast ribosomal protein uS2c (natural protein, UniProt P08242 1-236, looked up) MTRRYWNINLEEMMEAGVHFGHGTRKWNPRMSPYISAKCKGIHIINLTRTARFLSEACDLVFDASSRGKQFLIVGTKNKAADSVARAAIRARCHYVNKKWLGGMLTNWSTTETRLHKFRDLRMEQTAGRLARLPKRDAAVVKRQLSHLQTYLGGIKYMTGLPDIVIIVDQQEEYTALRECITLGIPTICLIDTNCNPDLADISIPANDDAIASIRLILTKLVFAICEGRSSYIRNP",binding result,[4],binds
same,binding result,[6],binds
B2,binding result,[6],binds
"chloroplast ribosomal protein uL29c (natural protein, UniProt P82248 59-168, looked up) VKKEDELKELRTKTNEQLNEEILQLKGELFMLRLQRSARENFKPSDFGRMRKRVARMLTVKREREIEQGVGKRLSRKLDKAWKRSIVVRPPPSLKKLQEKATAEAEAEKA",binding result,[7],binds
